# According to PMC2843633:
# B1: 5′Nuc/SUMO fusion protein (Glossina morsitans morsitans 5′nucleotidase-related protein, recombinant, refolded) (enzyme)
# chain: DDLYPLTIMHTNDFHARFEETNVKGNPCKSGEKCIGGLARVLHTIKKIIKEQEKKNIESLYINAGDNFQGTIWYNIGRWNVTSELMNIQPPDVMVLGNHEFDHGIDGLLPFLNNMDKTEIVVANMDARDEPQVAKKIKPFTIIKKKYRNIGVIGVVVEEVPDLANTGKLKFRNESEAILEAARNLKKEDPSVNIIIVVSHVGFDVDKIIAERTGSEVDIIVGGHSHTVLYTGTPPGPEKPEDNYPYVYNHPSGNKVLVVQAVCHAKYVGNLTVFFDKKGKVVTYEGAPIYMDTKVEQDKDVLEAMKPWRKLIDEKTKLVVGRTNVDLPRDICRSEECALGNLYTDSMIYAFGGKENCKSGSTWTTAPIAFVHAGAMRSSLHQGDILYSDALLLSPFTNMVVAYDLPGAQLKAALEFSAAPKNEDEKRRFLQMSGLKVTYNMSRAANNRIVDLKVRTNVCPYDQYENLDEKKTYRVVSPSFLQGGGDGFKMLRDYAKNIQNQKIDLDALVDYLKKFSPLAPKAEGRITIIH
# Biological target: human fibrinogen receptor (GPIIb/IIIa), purified (human) (UniProt P05106)
# Assay: ELISA; GPIIb/IIIa coated at 40 nM on Nunc Maxisorb plates; 5′Nuc/SUMO 250 – 1.95 nM in solution, 0.1% Tween 20; detected with polyclonal anti-5′Nuc IgG or anti-SUMO IgG; apparent KD from four experiments
binder,measurement,value
B1,Kd,92 nM
